The target of assay [1] is T1, 10 kDa CNBr fragment of sNgR310 (aa 241-aa 310) (rat, UniProt Q99M75 241-310).
T1 construct: CNBr cleavage product of rat sNgR310
T1 chain: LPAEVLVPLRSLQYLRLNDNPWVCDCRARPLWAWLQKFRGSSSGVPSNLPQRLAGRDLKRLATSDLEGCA
Description: western blot. Here is the method: (§1) A recombinant fragment of the rat NgR1 that contains all 8 LRR domains and the N- and C-terminal caps (sNgR310) was treated with either acid or cyanogen bromide (CNBr) and separated the fragments by gel electrophoresis.
For orientation: A western blot detects proteins with antibodies after separation by electrophoresis.

Assay [2] addresses T2, 35 kDa CNBr fragment of sNgR310 (aa 27-aa 229) (rat, UniProt Q99M75 27-229).
T2 construct: CNBr cleavage product of rat sNgR310; also called 33/35 kDa doublet
T2 chain: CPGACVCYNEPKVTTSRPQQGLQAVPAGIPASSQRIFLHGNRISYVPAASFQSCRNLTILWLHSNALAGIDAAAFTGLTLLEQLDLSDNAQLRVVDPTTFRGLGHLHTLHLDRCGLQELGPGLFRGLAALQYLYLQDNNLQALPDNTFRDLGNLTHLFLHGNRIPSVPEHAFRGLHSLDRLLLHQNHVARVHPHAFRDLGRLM
Nature of the assay: western blot. Here is the method: as §1

Assay [3] addresses T3, 15 kDa acid fragment of sNgR310 (aa 27-aa 122) (rat, UniProt Q99M75 27-122).
T3 construct: acid cleavage product of rat sNgR310
T3 chain: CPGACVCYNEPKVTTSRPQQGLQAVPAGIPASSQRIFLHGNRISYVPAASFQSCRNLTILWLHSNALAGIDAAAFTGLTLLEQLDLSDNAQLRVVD
Description: western blot. The protocol: as §1

Assay [4] concerns the target T4, Nogo receptor-1 (species and construct not stated).
T4 sequence (Q9BZR6 27-447, species assumed, looked up): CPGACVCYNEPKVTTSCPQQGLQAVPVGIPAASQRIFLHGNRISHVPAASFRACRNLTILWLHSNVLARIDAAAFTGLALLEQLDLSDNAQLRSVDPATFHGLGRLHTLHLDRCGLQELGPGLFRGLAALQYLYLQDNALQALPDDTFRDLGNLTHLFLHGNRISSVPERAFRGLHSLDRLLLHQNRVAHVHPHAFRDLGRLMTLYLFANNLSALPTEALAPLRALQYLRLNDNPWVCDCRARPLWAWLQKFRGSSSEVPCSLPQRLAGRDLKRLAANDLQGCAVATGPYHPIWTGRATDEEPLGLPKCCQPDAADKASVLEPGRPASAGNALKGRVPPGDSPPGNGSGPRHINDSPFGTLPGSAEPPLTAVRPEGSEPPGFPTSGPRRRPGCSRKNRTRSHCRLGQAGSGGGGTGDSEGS
Nature of the assay: surface plasmon resonance (BIAcore) per the text; NgR1 construct not stated.

A further assay deals with T5, peptide DNAQLRVVDPTT (rat).
T5 peptide: DNAQLRVVDPTT
Description: endoprotease Asp-N digest of p-617.

The target of assay [5] is T6, tryptic peptide AAAFTGLTLLEQLDLSDNAQLR (rat).
T6 construct: tryptic digest peptide of rat sNgR310
T6 peptide: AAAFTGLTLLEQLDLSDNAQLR
Description: tryptic digest of sNgR310, MS and sequence analysis.

Assay [6] concerns the target T7, peptide LDLSDNAALRVVDPTT (Q117A).
T7 construct: also called Gln17Ala (so in the source)
T7 peptide: LDLSDNAALRVVDPTT
Description: ELISA, peptides immobilized on MaxiSorp plate. Background: ELISA stands for enzyme-linked immunosorbent assay.

The target in assay [7] is T8, peptide LDLSDNAQLHVVDPTT (R119H).
T8 construct: also called Arg119His; R11911 (so in the source)
T8 peptide: LDLSDNAQLHVVDPTT
Description: ELISA, peptides immobilized on MaxiSorp plate.

The target of assay [8] is T9, peptide LDLSSDNAQLR (Scrambled Fragment #3).
T9 peptide: LDLSSDNAQLR
Nature of the assay: MS of peptides bound by 7E11.

The target in assay [9] is T10, peptide LDLSDDAELR (deaminated wild-type fragment).
T10 construct: deamination at Asn115 and Gln117
T10 peptide: LDLSDDAELR
Nature of the assay: MS of peptides bound by 7E11.

The target in assay [10] is T11, peptide LDLSDNAQLR (Wild-type Fragment) (rat).
T11 peptide: LDLSDNAQLR
Description: MS of peptides bound by 7E11.

In assay [11] the target is T12, peptide LDALSDNAQLR (Scrambled Fragment #2).
T12 peptide: LDALSDNAQLR
Description: MS of peptides bound by 7E11.

Assay [12] has as its target T13, peptide LDLASDNAQLR (Scrambled Fragment #1).
T13 peptide: LDLASDNAQLR
Description: MS of peptides bound by 7E11.

The target in assay [13] is T14, peptide LDALSDDAELR (Scrambled Fragment #2, deaminated).
T14 peptide: LDALSDDAELR
Description: MS of peptides bound by 7E11.

The target in assay [14] is T15, peptide LDLASDDAELR (Scrambled Fragment #1, deaminated).
T15 peptide: LDLASDDAELR
Description: MS of peptides bound by 7E11.

Consider one molecule from patent US8669345 (Biogen, dated 2014).

As usually defined, the Kd is the free concentration of one partner at which half of the binding sites on the other are occupied at equilibrium, for simple one-to-one binding. A higher Kd goes with weaker binding.

B1: monoclonal antibody 7E11 (antibody, V domains shown)
VH: VQLQESGAELVMPGASVKMSCKASGYTFTDYWMHWVKQRPGQGLEWIGAIDPSDSYSSYNQNFKGKATLTVDGSSSTAYMQLSSLTSEDSAVYYCARRITEAGAWFAYWGQGTTVT
VL: DVVMTQTPLSLPVSLGDQASISCRSSQSLVHSNGNTYLHWYLQKPGQSPKLLIYKVSNRFSGVPDRFSGSGSGTDFTLKISRVDAEDLGVYFCSQSTHVPFTFGGGTKLEIKR
notes: murine IgG1, kappa; immunogen: peptide of rat NgR1 residues 110-125; also called mAb 7E11; HB 7E11 (ATCC PTA-4587)
On to B1, for which the binding result in assay [1] is “no binding”; in [2], “binds”; in assay [3], “binds”; with peptide DNAQLRVVDPTT it was “binds”; in assay [5], “binds”; in [8], “binds”. Besides, the binding result in assay [9], in assay [10], in [11], in assay [12], in [13] and in [14] was “binds” each time. Further, the Kd in assay [4] came out at 100 nM. Further, the “fold increase of EC50 against the original peptide” value is 30 fold in assay [6] and 25 fold in [7].
